In paper PMC8744557, “Engineering the Catalytic Properties of Two-Domain Laccase from Streptomyces griseoflavus Ac-993” (International Journal of Molecular Sciences, 2021) one finds Km, kcat and kcat/Km data, which are given here for 6 proteins.

Positions count from the first letter of the chain named. Numbers in names are those of the source.

Substrate in data set [1]: CCn1c(=NN=c2sc3cc(S(=O)(=O)O)ccc3n2CC)sc2cc(S(=O)(=O)O)ccc21
Description: purified protein. The data set is classed as biochemical, Streptomyces griseoflavus. Conditions: 50 mM Britton-Robinson buffer, O2 co-substrate.

Substrate in data set [2]: COc1cccc(OC)c1O
Put plainly: purified protein. Format: biochemical, Streptomyces griseoflavus. As to conditions: 50 mM Britton-Robinson buffer, O2 co-substrate.

B1: SgfSL (SgfSLwt) (Streptomyces griseoflavus) (protein)
chain: AGAAPAGGEVRRVTMYAERLAGGQMGYGLEKGKASIPGPLIELNEGDTLHVEFENTMDVPVSLHVHGLDYEISSDGTKQNKSHVEPGGTRTYTWRTHEPGRRADGTWRAGSAGYWHYHDHVVGTEHGTGGIRNGLYGPVIVRRKGDVLPDATHTIVFNDMTINNRPAHTGPNFEATVGDRVEIVMITHGEYYHTFHMHGHRWADNRTGMLTGPDDPSQVIDNKICGPADSFGFQIIAGEGVGAGAWMYHCHVQSHSDMGMVGLFLVKKPDGTIPGYDPQEHAH
notes: pET32-Xa/Lic, thioredoxin/His tail cut with factor Xa; E. coli BL21(DE3)/Rosetta; homotrimer; primers encode N-terminus AGAAPAGG and C-terminus PQEHAH
B1: in “purified protein [1]” (pH 4.0, 30 °C), the Michaelis constant (Km) turned out to be 0.36 ± 0.07 mM, the kcat came to 15 ± 1 s⁻¹ and the kcat/Km came out at 42000 M⁻¹ s⁻¹. For the same protein, in the data set “purified protein [2]” (pH 9.0, 30 °C), the Michaelis constant (Km) stood at 0.32 ± 0.08 mM, the kcat came out at 0.35 ± 0.02 s⁻¹ and the catalytic efficiency (kcat/Km) was 1090 M⁻¹ s⁻¹.

B2: SgfSL (SgfSLwt) (Streptomyces griseoflavus; H165A/M199G) (protein)
chain: B1 chain with H126A, M160G
notes: as for B1
As for B2, in the data set “purified protein [1]” (pH 3.5, 30 °C), the Km is 0.09 ± 0.01 mM, the catalytic constant (kcat) was 9 s⁻¹ and the kcat/Km was 95000 M⁻¹ s⁻¹. Moreover, in “purified protein [2]” (pH 6.5, 30 °C), the Km is 0.28 ± 0.05 mM, the turnover number (kcat) is 0.31 ± 0.01 s⁻¹ and the catalytic efficiency (kcat/Km) was determined as 1110 M⁻¹ s⁻¹.

B3: SgfSL (SgfSLwt) (Streptomyces griseoflavus; M199G/R240H) (protein)
chain: B1 chain with M160G, R201H
notes: as for B1
As for B3, in the data set “purified protein [1]” (pH 3.5, 30 °C), the Km is recorded as 0.10 ± 0.015 mM, the kcat is 20 ± 1 s⁻¹ and the kcat/Km is 203000 M⁻¹ s⁻¹. In addition, in “purified protein [2]” (pH 8.5, 30 °C), the Km is 0.25 ± 0.02 mM, the kcat was found to be 4.18 ± 0.09 s⁻¹ and the kcat/Km came to 16500 M⁻¹ s⁻¹.

B4: SgfSL (SgfSLwt) (Streptomyces griseoflavus; M199A) (protein)
chain: B1 chain with M160A
notes: as for B1
On to B4, for which, in “purified protein [1]” (pH 4.0, 30 °C), the Km is 0.32 ± 0.05 mM, the kcat turned out to be 33 ± 2 s⁻¹ and the specificity constant (kcat/Km) worked out at 102000 M⁻¹ s⁻¹. In “purified protein [2]” (pH 8.0, 30 °C), the Km is given as 0.83 ± 0.08 mM, the kcat turned out to be 1.3 ± 0.05 s⁻¹ and the catalytic efficiency (kcat/Km) is 1550 M⁻¹ s⁻¹.

B5: SgfSL (SgfSLwt) (Streptomyces griseoflavus; Y230A) (protein)
chain: B1 chain with Y191A
notes: as for B1
In the case of B5, in “purified protein [1]” (pH 3.5, 30 °C), the Michaelis constant (Km) turned out to be 0.17 ± 0.04 mM, the kcat was found to be 29 ± 3 s⁻¹ and the catalytic efficiency (kcat/Km) turned out to be 169000 M⁻¹ s⁻¹. In addition, in the data set “purified protein [2]” (pH 8.5, 30 °C), the Km is recorded as 0.76 ± 0.03 mM, the kcat was 1.68 ± 0.07 s⁻¹ and the kcat/Km turned out to be 2220 M⁻¹ s⁻¹.

B6: SgfSL (SgfSLwt) (Streptomyces griseoflavus; M199G) (protein)
chain: B1 chain with M160G
notes: as for B1
B6: in the data set “purified protein [1]” (pH 4.0, 30 °C), the Michaelis-Menten constant (Km) is 0.20 ± 0.06 mM, the turnover number (kcat) was 45 ± 7 s⁻¹ and the catalytic efficiency (kcat/Km) turned out to be 226000 M⁻¹ s⁻¹. In addition, in “purified protein [2]” (pH 8.0, 30 °C), the Km is reported as 0.67 ± 0.12 mM, the kcat amounted to 3.39 ± 0.17 s⁻¹ and the kcat/Km came out at 5070 M⁻¹ s⁻¹.
